From patent US20210170043A1, “DC-SIGN ANTIBODY CONJUGATES COMPRISING STING AGONISTS” (NOVARTIS AG, priority 2018, published 2021)

What was measured:
Format in all cases: in vivo, mouse
[1] = tested on: transgenic mice expressing human DC-SIGN gene (Tg+); assay: Plasma cytokine and chemokine levels in human DC-SIGN transgenic mice; conditions: 6 hours post dose
Protocol: Blood was collected at 6 hours post dose to analyze plasma cytokine and chemokine levels and spleens were analyzed at 24 hours post dose to look at dendritic cell activation.
Mice were bled 6 hours after dosing to collect plasma for analysis of circulating cytokine levels.
Plasma was collected at indicated timepoints and analyzed with a Mouse IP-10 Platinum ELISA kit (eBioscience Affymetrix). Plasma was diluted 1:100 and the protocol was followed according to the manufacturer's recommendations. Data was collected using an Enspire spectro-photometer using […] as the primary wavelength.
Plasma was collected at indicated timepoints and analyzed with a Mouse IFN-beta ELISA kit (R&D Systems) according to the manufacturer's recommendations. Data was collected using an Enspire spectro-photometer using […] as the primary wavelength.
Plasma was collected at indicated timepoints and analyzed with a mouse Proinflammatory Panel 1 (mouse) Kit V-PLEX™ 10 plex from MesoScale Discovery. 25 μL of plasma per sample was used and protocol was followed according to the manufacturer's recommendations. Data were collected and analyzed using a Sector Imager 6000.
Human DC-SIGN transgenic mice (Tg+) (Schaefer et al., J. Immunol. (2008) 180 (10) 6836-6845) were bred to Signr1 deficient mice (−/− or KO) (Orr et al., Glycobiology (2013) 23(3): 363-380). Human DC-SIGN expression was checked using PCR to genotype the mice. Human DC-SIGN Tg+ Signr1−/− mice or human DC-SIGN Tg− Signr1−/− mice were tested with compounds as indicated in the above examples.

[2] = tested on: CD11c+ dendritic cells of Tg+ mice; assay: Dendritic cell activation in DC-SIGN Tg+ mice (spleen, flow cytometry)
Protocol: Spleens were harvested 24 hours post dose and analyzed by flow cytometry to look at CD11c+ dendritic cells.

MC38 tumor cells = assay: Flow cytometry of tumors and spleens of MC38 tumor-bearing mice (PDL1, T cell infiltration); conditions: Tg+ mice
Protocol: Spleens and tumors were analyzed 24 hours post dose by flow cytometry for PDL1 expression.
The effect of DC-SIGN immunoconjugate on tumor T cell infiltration was also evaluated. […] Mice After the mice were sacrificed 7 days after dosing, tumors were analyzed for T cell infiltration and activation by flow cytometry.
Tumors and/or spleens were extracted at the timepoints indicated from animals. Spleens were processed into a single cell suspension using glass slides and passed through a 100 micron mesh filter. Spleens were lysed in 1 mL of ACK lysis buffer (Life Technologies) for 5 minutes at room temperature. After lysis, cells were pelleted and resuspended in complete RMPI medium (RPMI Media 1640 with 10 percent fetal bovine serum (FBS), 0.05 mM 2-mercaptoethanol, 1 percent Penicillin-Streptomycin-Glutamine, 1 percent non-essential amino acids, 1 percent HEPES, 1 percent sodium pyruvate (all media reagents from Thermo Fisher). Tumors were extracted and put into digestion media in gentleMACS C tubes. Digestion media consists of Dulbecco's Modified Eagle Medium with 0.04 U/mL Dispase (StemCell Technologies), 0.1 mg/mL Collagenase P (Sigma) and 0.1 mg/mL DNase (Sigma). Tumors were incubated with in digestion media and then processed using the gentleMACS Dissociator (Miltenyi Biotec Inc, San Diego, Calif.) to obtain a single cell suspension. After processing, cells were filtered in […] filters (Miltenyi Biotec Inc).
1-2 million cells for each sample were then stained with a cocktail of antibodies to determine impact of the treatments on dendritic cells, myeloid cells and T cells. For FACS analysis, cells were stained with a fixable, amine reactive dye to label dead cells (Zombie UV™ fixable viability kit, Biolegend) in PBS. For antibody staining, indicated antibodies (see table below) were diluted in PBS with 0.5% Bovine serum albumin (BSA, from Sigma). Samples were incubated at 4° C. for 30 minutes and then washed 2 times with PBS with 0.5% BSA. Cells were fixed with stabilizing fixative (BD). For intracellular analysis of FoxP3 to evaluate T regulatory cells, cells were fixed and permeabilized with the FoxP3 transcription factor kit according to manufacturer's recommendations (Thermo Fisher). Cells were then stained with FoxP3 clone FJK-16s (Thermo Fisher). After staining, cells were evaluated on the BD LSRFortessa™ cell analyzer (BD Biosciences, San Jose, Calif.).
T cells were identified as CD3+ MHCII− cells. CD8+ T cells and CD4+ T cells were further defined as CD8 and CD4 positive, respectively. Tregs were identified from CD4+ T cells as being FoxP3+.
Dendritic cells were identified as MHCII high CD11c high cells and further gated on expression of CD8 and CD11 b to identify CD8+DC subsets and CD11b+ DCs where noted. Monocytic myeloid derived suppressor cells were identified as CD45+ cells in tumors that express CD11b, MHCII, F4/80, Ly6C and are intermediate for Ly6G.

[3] = tested on: tumor and splenic immune cells; assay: Flow cytometry of spleen and tumor immune cells in tumor-bearing DC-SIGN transgenic mice (PDL1, T cell infiltration and activation); conditions: Tg+ mice
Source text: FIGS. 19A-19B show exemplary data on DC-SIGN immunoconjugates inducing upregulation of surface PDL1.
FIGS. 20A-20F show exemplary data on DC-SIGN immunoconjugates enhancing tumor T cell infiltration and T cell activation.

[4] = MC38, 1 mg/kg, 24 hours post dose

B1: 2B2 (DAPA) C1 (conjugate)
heavy: QVQLVQSGAEVKKPGASVKVSCKASGYTFTNYGINWVRQAPGQRLEWMGYIYIGNDYTEYNERFKGRVTITSDTSASTAYMELSSLRSEDTAVYYCARLYYGSSLYSYAMDYWGQGTTVTVSSASTKGPSVFPLAPSSKSTSGGTAALGCLVKDYFPCPVTVSWNSGALTSGVHTFPAVLQSSGLYSLSSVVTVPSSSLGTQTYICNVNHKPSNTKVDKRVEPKSCDKTHTCPPCPAPELLGGPSVFLFPPKPKDTLMISRTPEVTCVVVAVSHEDPEVKFNWYVDGVEVHNAKTKPREEQYNSTYRVVSVLTVLHQDWLNGKEYKCKVSNKALAAPIEKTISKAKGQPREPQVYTLPPSREEMTKNQVSLTCLVKGFYPCDIAVEWESNGQPENNYKTTPPVLDSDGSFFLYSKLTVDKSRWQQGNVFSCSVMHEALHNHYTQKSLSLSPGK
light: DIVMTQSPLSLPVTPGEPASISCRSSKSLLHSSGNTYLYWFLQKPGQSPQLLISRMSNLASGVPDRFSGSGSGTDFTLKISRVEAEDVGVYYCMQHLEYPYTFGGGTKVEIKRTVAAPSVFIFPPSDEQLKSGTASVVCLLNNFYPREAKVQWKVDNALQSGNSQESVTEQDSKDSTYSLSSTLTLSKADYEKHKVYACEVTHQGLSSPVTKSFNRGEC
In the case of B1, the “plasma IL-12p70” value ([1]; 1 mg/kg i.v. (Fab2 1.33 mg/kg)) is reported as “increased”, the “plasma IP-10” value ([1]; 1 mg/kg i.v. (Fab2 1.33 mg/kg, Fab 1.3 mg/kg)) is reported as “increased” and the “plasma TNFα” value ([1]; 1 mg/kg i.v.) is reported as “increased”. The “CD80 upregulation on dendritic cells (DC activation)” value [2] was “significantly upregulated”, the “CD86 upregulation on dendritic cells (DC activation)” value [2] was “significantly upregulated” and the “surface PDL1 on splenic CD11c high dendritic cells” value (MC38 tumor cells; [4]) was “significant upregulation of surface PDL1”. The “surface PDL1 on tumor resident dendritic cells and mMDSCs” value (MC38 tumor cells; [4]) was “significant upregulation of surface PDL1”, the “tumor CD3+ T cells” value (MC38 tumor cells; MC38, 1 mpk, 24 and 48 hours post dosing) was “increased CD3+ T cells” and the “T cell activation as measured by CD69 upregulation on tumor CD4 and CD8 T cells” value (MC38 tumor cells; MC38, 1 mpk, 24 hours post dose) was “Enhanced T cell activation”. The “tumor CD8+ T cells” value (MC38 tumor cells; MC38, 1 mpk, day 7 post dose) was “significant increase in CD8+ T cells”, the “tumor FoxP3+ T regulatory cells” value (MC38 tumor cells; MC38, 1 mpk, day 7 post dose) was “significant decrease in FoxP3+T regulatory cells” and the “tumor infiltration of CD8 T cells, combination with anti-PDL1” value (MC38 tumor cells; MC38, conjugate plus anti-PDL1 clone 10F.9G2, 7 days after dosing) was “enhanced infiltration of CD8 T cells”. The “surface PDL1 on splenic CD11c high dendritic cells” value ([3]; 1 mg/kg) was “significant upregulation”, the “surface PDL1 on tumor resident dendritic cells and mMDSCs” value ([3]; 1 mg/kg) was “significant upregulation” and the “CD3+ T cells in tumor” value ([3]; 24 and 48 hours post dosing) was “Increased”. For the same molecule, the “T cell activation as measured by CD69 upregulation on CD4 and CD8 T cells in tumors” value ([3]; 24 hours post dose) was “Enhanced T cell activation”, the “CD8+ T cells in tumors” value ([3]; day 7 post dose) was “significant increase” and the “FoxP3+ T regulatory cells in tumors” value ([3]; day 7 post dose) was “significant decrease”. For the same molecule, the “infiltration of CD8 T cells in tumors” value ([3]; in combination with anti-PDL1) was “enhanced infiltration of CD8 T cells”.
